Measurements taken from the supplement of paper PMC10567573.

B1: PLAGL1 (parent)
chain: DPNKMAFGCEECGKKYNTMLGYKR

Variants of: B1
Experiment: protein stability index of a GFP-peptide fusion (GPS, HEK-293T) (PSI 1-6); higher = more stable
Settings: c terminus: a fixed tail appended
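Further: lentivirally expressed fusions sorted by FACS into six bins by GFP to DsRed ratio, PSI derived from sequencing read proportions per bin multiplied by bin number.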

Going from DPNKMAFGCEECGKKYNTMAGYKR [L20A] to DPNKMAFGCEECGKKYNTMQGYKR [L20Q], the protein stability index rises from 2.23 to 2.33.

First: DPNKMAFGCEECGKKYNTMSGYKR [L20S]
Second: DPNKMAFGCEECGKKYNTMKGYKR [L20K]
The protein stability index of the first is lower: 2.59 for the first, 3.26 for the second.

First: DPNKMAFGCEECGKKYNTMDGYKR [L20D]
Second: DPNKMAFGCEECGKKYNTMGGYKR [L20G]
The protein stability index of the first is higher: 2.82 for the first, 2.46 for the second.

First: DPNKMAFGCEECGKKYNTALGYKR [M19A]
Second: DPNKMAFGCEECGKKYNTRLGYKR [M19R]
The protein stability index of the first is higher: 3.16 for the first, 2.99 for the second.

First: DPNKMAFGCEECGKKYNTHLGYKR [M19H]
Second: DPNKMAFGCEECGKKYNTYLGYKR [M19Y]
The protein stability index of the first is lower: 1.32 for the first, 2.49 for the second.

Going from DPNKMAFGCEECGKKYNTKLGYKR [M19K] to DPNKMAFGCEECGKKYNTQLGYKR [M19Q], the protein stability index falls from 3.55 to 2.94.

Going from DPNKMAFGCEECGKKYNTGLGYKR [M19G] to DPNKMAFGCEECGKKYNTMLGTKR [Y22T], the protein stability index falls from 2.64 to 2.24.

First: DPNKMAFGCEECGKKYNTMLGKKR [Y22K]
Second: DPNKMAFGCEECGKKYNTMLGLKR [Y22L]
The protein stability index of the first is higher: 3.72 for the first, 3.15 for the second.

Compared with DPNKMAFGCEECGKKYNTMLGHKR [Y22H], DPNKMAFGCEECGKKYNTMLGNKR [Y22N] is higher in protein stability index: 2.18 for the first, 2.78 for the second.

First: DPNKMAFGCEECGKKYNEMLGYKR [T18E]
Second: DPNKMAFGCEECGKKYNFMLGYKR [T18F]
The protein stability index of the first is higher: 2.77 for the first, 2.15 for the second.

Going from DPNKMAFGCEECGKKYNYMLGYKR [T18Y] to DPNKMAFGCEECGKKYNIMLGYKR [T18I], the protein stability index rises from 1.87 to 2.63.

Compared with DPNKMAFGCEECGKKYNPMLGYKR [T18P], DPNKMAFGCEECGKKYNDMLGYKR [T18D] is lower in protein stability index: 2.78 for the first, 2.42 for the second.

Compared with DPNKMAFGCEECGKKYNQMLGYKR [T18Q], DPNKMAFGCEECGKKYNSMLGYKR [T18S] is lower in protein stability index: 3.04 for the first, 2.39 for the second.

Going from DPNKMAFGCEECGKKYNLMLGYKR [T18L] to DPNKMAFGCEECGKKYNNMLGYKR [T18N], the protein stability index rises from 1.85 to 2.3.

Going from DPNKMAFGCEECGEKYNTMLGYKR [K14E] to DPNKMAFGCEECGLKYNTMLGYKR [K14L], the protein stability index falls from 3.44 to 1.54.

First: DPNKMAFGCEECGYKYNTMLGYKR [K14Y]
Second: DPNKMAFGCEECGRKYNTMLGYKR [K14R]
The protein stability index of the first is lower: 1.95 for the first, 1.99 for the second.

Going from DPNKMAFGCEECGIKYNTMLGYKR [K14I] to DPNKMAFGCEECGTKYNTMLGYKR [K14T], the protein stability index rises from 2.46 to 3.14.

Compared with DPNKMAFGCEECVKKYNTMLGYKR [G13V], DPNKMAFGCEECSKKYNTMLGYKR [G13S] is higher in protein stability index: 1.39 for the first, 2.98 for the second.

Going from DPNKMAFGCEECRKKYNTMLGYKR [G13R] to DPNKMAFGCEECPKKYNTMLGYKR [G13P], the protein stability index rises from 2.53 to 3.96.

Compared with DPNKMAFGCEECHKKYNTMLGYKR [G13H], DPNKMAFGCEECYKKYNTMLGYKR [G13Y] is lower in protein stability index: 2.45 for the first, 2.32 for the second.

Going from DPNKMAFGCEECCKKYNTMLGYKR [G13C] to DPNKMAFGCEECKKKYNTMLGYKR [G13K], the protein stability index rises from 1.97 to 2.04.

Compared with DPAKMAFGCEECGKKYNTMLGYKR [N3A], DPLKMAFGCEECGKKYNTMLGYKR [N3L] is higher in protein stability index: 2.21 for the first, 3.54 for the second.

Compared with DPPKMAFGCEECGKKYNTMLGYKR [N3P], DPGKMAFGCEECGKKYNTMLGYKR [N3G] is higher in protein stability index: 2.26 for the first, 2.8 for the second.

Compared with DPQKMAFGCEECGKKYNTMLGYKR [N3Q], DPFKMAFGCEECGKKYNTMLGYKR [N3F] is lower in protein stability index: 3.51 for the first, 2.15 for the second.

Going from DPNKMAFGCEECGKKYWTMLGYKR [N17W] to DPNKMAFGCEECGKKYATMLGYKR [N17A], the protein stability index rises from 1.76 to 2.82.

First: DPNKMAFGCEECGKKYPTMLGYKR [N17P]
Second: DPNKMAFGCEECGKKYHTMLGYKR [N17H]
The protein stability index of the first is lower: 2.35 for the first, 2.91 for the second.

Compared with DPNKMAFGCEECGKKYETMLGYKR [N17E], DPNKMAFGCEECGKKYFTMLGYKR [N17F] is higher in protein stability index: 2.31 for the first, 3.25 for the second.

Going from DPNKMAFGCEECGKKYGTMLGYKR [N17G] to DPNKMAFGCEECGKKYDTMLGYKR [N17D], the protein stability index rises from 1.52 to 2.33.

First: DPNKMAFGCEECGKKYVTMLGYKR [N17V]
Second: DPNKGAFGCEECGKKYNTMLGYKR [M5G]
The protein stability index of the first is lower: 1.78 for the first, 2.81 for the second.

Going from DPNKHAFGCEECGKKYNTMLGYKR [M5H] to DPNKNAFGCEECGKKYNTMLGYKR [M5N], the protein stability index falls from 2.73 to 2.48.

First: DPNKIAFGCEECGKKYNTMLGYKR [M5I]
Second: DPNKRAFGCEECGKKYNTMLGYKR [M5R]
The protein stability index of the first is higher: 2.38 for the first, 2.36 for the second.

First: DPNKEAFGCEECGKKYNTMLGYKR [M5E]
Second: DPNKTAFGCEECGKKYNTMLGYKR [M5T]
The protein stability index of the first is higher: 3.31 for the first, 2.88 for the second.

First: DPNKQAFGCEECGKKYNTMLGYKR [M5Q]
Second: DPNKAAFGCEECGKKYNTMLGYKR [M5A]
The protein stability index of the first is lower: 2.26 for the first, 2.63 for the second.

First: DPNKCAFGCEECGKKYNTMLGYKR [M5C]
Second: DFNKMAFGCEECGKKYNTMLGYKR [P2F]
The protein stability index of the first is higher: 3.04 for the first, 2.73 for the second.

First: DNNKMAFGCEECGKKYNTMLGYKR [P2N]
Second: DMNKMAFGCEECGKKYNTMLGYKR [P2M]
The protein stability index of the first is lower: 2.12 for the first, 3.12 for the second.

Going from DSNKMAFGCEECGKKYNTMLGYKR [P2S] to DKNKMAFGCEECGKKYNTMLGYKR [P2K], the protein stability index falls from 2.7 to 2.57.

Compared with DINKMAFGCEECGKKYNTMLGYKR [P2I], DRNKMAFGCEECGKKYNTMLGYKR [P2R] is higher in protein stability index: 1.88 for the first, 3.98 for the second.

First: DLNKMAFGCEECGKKYNTMLGYKR [P2L]
Second: DTNKMAFGCEECGKKYNTMLGYKR [P2T]
The protein stability index of the first is higher: 2.15 for the first, 2.03 for the second.

First: DANKMAFGCEECGKKYNTMLGYKR [P2A]
Second: DHNKMAFGCEECGKKYNTMLGYKR [P2H]
The protein stability index of the first is higher: 2.26 for the first, 1.86 for the second.

First: DPNKMAFGCEECGKKLNTMLGYKR [Y16L]
Second: DPNKMAFGCEECGKKSNTMLGYKR [Y16S]
The protein stability index of the first is higher: 3.25 for the first, 2.62 for the second.

Compared with DPNKMAFGCEECGKKPNTMLGYKR [Y16P], DPNKMAFGCEECGKKDNTMLGYKR [Y16D] is lower in protein stability index: 3.07 for the first, 2.88 for the second.

Going from DPNKMAFGCEECGKKMNTMLGYKR [Y16M] to DPNKMAFGCEECGKKCNTMLGYKR [Y16C], the protein stability index falls from 2.71 to 2.58.

First: DPNKMAFGCEECGKKTNTMLGYKR [Y16T]
Second: DPNKMAFGCEENGKKYNTMLGYKR [C12N]
The protein stability index of the first is lower: 3.51 for the first, 4.1 for the second.

Compared with DPNKMAFGCEEHGKKYNTMLGYKR [C12H], DPNKMAFGCEESGKKYNTMLGYKR [C12S] is higher in protein stability index: 2.98 for the first, 3.52 for the second.

Compared with DPNKMAFGCEEWGKKYNTMLGYKR [C12W], DPNKMAFGCEETGKKYNTMLGYKR [C12T] is higher in protein stability index: 2.93 for the first, 3.78 for the second.

Going from DPNKMAFGCEEAGKKYNTMLGYKR [C12A] to DPNKMAFGCEEGGKKYNTMLGYKR [C12G], the protein stability index falls from 4.36 to 4.29.

First: DPNKMAFGCEEKGKKYNTMLGYKR [C12K]
Second: DPNKMAFGCEEQGKKYNTMLGYKR [C12Q]
The protein stability index of the first is higher: 4.4 for the first, 4.24 for the second.
